The values below come from the nanobody polyreactivity screen of Harvey et al. (2022).

The nature of this series: yeast display, Sf9 membrane polyspecificity reagent, FACS + sequencing; frameworks hold sequencing errors. A digest of the protocol: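 A nanobody's polyreactivity label depends on the gate it was sorted from. Yeast display cells were stained with 10% biotinylated, detergent-solubilized Sf9 membrane reagent for 1 hour at 4 °C, enriched on streptavidin microbeads and sorted by FACS. The low and high (top ~1%) gates were set on anti-HA fluorescence for expression and streptavidin fluorescence for reagent binding.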
For the sequence “QVQLVESGGGLVQAGGSLSLSCAASGSTFYGYAMGWYRQAPGKERELVAAITRSGGSTYYADSVKGRFTISRDNAKNTVYLQMNSLTPEDTAVYYCAAERLYYYVYWGQGTQVTVSS”, the “polyreactivity (PSR sort gate)” value is “low polyreactivity”. As for “QVQLVESGGGLVQAGCSLRISCAASGITFGRKTMGWSRQAPGKERELVAAIDSGGNTYADSVKGRFTISRDNAKNTVYLQMNSLKPEDTAVYYCAVDGGEFSSYGYWGQGTQVTVSS”, the entry is “low polyreactivity”; as for “QVQLVESGGGLVQAGGSLRLSCAASGSIFGYYDMGWYRQAPGKERELVAAISYRGSSTYYADSVKGRFTISRDNAKNTVYLQMNSLKPEDTAVYYCASRYYYSYPPQEDDYWGQGTQVTVSS”, “high polyreactivity”; as for “QVQLVESGRGLVQAGGSLRLSCAASGSTFRYNTMGSYRQAPGKERELVAAITGGGGSTYYADSVKGRFTISRDNAKNTVYLQMNSMKPEDTAVYYCATRSYALGYDYGGQGTQVTVSS”, “low polyreactivity”. As to “QVQLVESGGGLVPAGGSLRLSCAASGSIFYHNAMGWYRQAPGKERELVAAISYRTGRTYYADSVKGRFTISRDNAKNTVYLQMNSLKPEDTAVYYCAAPYSWGQATQVTVSS”, the “polyreactivity (PSR sort gate)” value was “high polyreactivity”.

In the case of “QVQLVESGGGLVQAGGSLRLSCAASGSIFNRYTMGWYRPAHGKQRELVAAISRGGITYYADSVKGRFTISRDNAMNTVYLQMNSLKPEDSAVYYCAADGFTRWGRYDYWGQGTQVTVSS”, the “polyreactivity (PSR sort gate)” value is recorded as “high polyreactivity”. As for “QVQLVESGGGLVQAGGSLRLSCAASGSTFRYYAMGWYRQAPGKERELVAAIDRSGGNTYYADSVKGRFTISRDNAKNTVYLQMYSLKPEDTAVYYCNTASWRAQYYYWGQGTQVTVSS”, the entry is “high polyreactivity”; as for “QLQLGESGGGLVQAGASLRLSFAPSGRLFDRYAMGWYRTAPATERELVASIRSGGSTNYADSVKGRFTISRDNAKNTGYLQMNSLNPEDTAVYYCAAVLRPVRFYSGYYYWGQGTQVTVSS”, “high polyreactivity”. For “QVQLVESGGGLVQAGGSLRLSCAASGRIFHWYAMGWYRQAPGKERELVATANTSYADSVKGRFTISRDNAKNTVYLQMNSLKPEDTAVYYCATVGPRGRSLGDYWGQGTQVTVSS”, the “polyreactivity (PSR sort gate)” value is recorded as “low polyreactivity”.

Consider “QVQLVESGGGLVQAGGSLRLICAASGRIFHGNAMGWYRQAPGKERELVAAISRRGGSTYYADSVKGRFTISRDNAKNTVYLQMNSLKPEDTAVYYCASVYYNGIRYGYWGQGTQVTVSS”, for which the “polyreactivity (PSR sort gate)” value is “high polyreactivity”. Regarding “QVQLVESGGGLVQAGGSLRLSCAASGIIFRFYAMGWSRQAPGKERELVATISKRGGTTYYADSVKGRFTISRDYAMNTVDLQMNSLKPEDSAVYYCAVRLYLEMDYWGQGTQVTVSS”, the “polyreactivity (PSR sort gate)” value is listed as “high polyreactivity”.

For the sequence “QVQLVESGGGLVQAGGSLRLSCAASGSTLGYYAMGWYRQAPGKERELVAAISKGGGSTYYADSVKGRFTISRDNAKNTVYLQMNSLKPEETAVYYCAAYSTSWSRYDYWGQGTQVTVSS”, the “polyreactivity (PSR sort gate)” value is “high polyreactivity”. With “QDQLVESGGGLVQAGGSLRLSCAPSGRTFRYNAMGWYIQAPVKERELVAAINWNCGSTYYADSVKGRFTISRDNAKNTVYLQMNSLKPEDTAVYYCNADFYHRYDWGQGTQVTVSS”, the “polyreactivity (PSR sort gate)” value is “high polyreactivity”. The entry for “QVQLVESGGGLVQAGGSLRLSCAASGSTFGWYAMGWYRQAPGKERELVATISTTGGRTYYADSVKGRFTISRDNAKNTVYLQMNSLKPEDTAVYYCAARAFYKRYFAFDYWGQGTQVTVSS” is “high polyreactivity”; for “QVQLVESGGGLVQAGGSLRLICAASGSIFIHNAMGWYRPAPGKERELVAGITTGGSTYYADSVKGRFTISRDNAKNTVYLQMNSLKPEDTAVYYCAVKRPVALTRGNWVTEARDYWGQGTQVTVSS” it is “low polyreactivity”; for “QVQLVESGGGLVQAGGSLRLSCAASGFIFQRYAMGWYRQAPGKERELVAAISSGGGTNYADSVKGRFTISRDNAKNTVYLQMNSLKPEDTAVYYCARPYYVYSQSSDYWGQGTQVTVSS” it is “low polyreactivity”. On to “KVQLVESGGGLVQAGGSLRLSCAASGSIFIGYAMGCYRQAPGKERELVAAISYRGGSTYYADSVKGRFTISRDNAKNTVYLQMNSLKPEDTAVYYCATVLPVQQTRLGYSSRYYYWGQGTQVTVSS”, for which the “polyreactivity (PSR sort gate)” value is listed as “high polyreactivity”. For the sequence “QVQLVESGGGLVQAGGSLRLSCAASGRTFYPYARGWYREAPGKERELVAAISSNGVLTYYADSVKGRFTISRDNAKKSVYLQMNSLKPEDTAVYYCAARKPYVYHLDSWGQGTQVTVSS”, the “polyreactivity (PSR sort gate)” value is given as “high polyreactivity”. Consider “QVQLVESGGGLVQAGGSLLLSCAASGSIFRYYAMGWSRQAPGKERELVAAISSNGASTYYADSVKGRFTISRDNAKNTVYLQKNSLKPEVSGVYYCAARFRRAPGYYWGQGTQVTVSS”, for which the “polyreactivity (PSR sort gate)” value was “high polyreactivity”. As to “QVQIVESGGGLVQAGGSLRLSCAASGRTFYYNAMGWYRQAPGKERELVAAITWSGGGTYYADSVKGRFTISRDNAKNTVYLQMNSLKPEDTAVYYCAKTPGWTDYDYWGQGTQVTVSS”, the “polyreactivity (PSR sort gate)” value was “high polyreactivity”. Regarding “QVQLVESGGGLVQAGGSLRLSCAASGFIFGGYAMGWYRQAPGKERELVAAISRSGGSTYYADSVKGRFTISRDNAKNTVYLQMNSLKPEDTAVYYCAAKFWPEDHRMDYWGQGTQVTVSS”, the “polyreactivity (PSR sort gate)” value was “low polyreactivity”. The entry for “QVQLVESGGGLDQAGGSLRLSCAASGRIFDKYALGCYRHAPGKERELVAAISSSGGSTYYADSVKGRFTISRDNAKNTVYLQMNSLKTEDTAVYYCAKLVVVPFYYWGQGTQVTVSS” is “high polyreactivity”; for “QVQLVESGGGLVQAGGSLRISCAASGRIFRQNTMGWYRQAPGKERELVAAISRSGGSTYYADSVKGRFTISRENAKNTVYLQMNSLKPEDTAVYYCNKVTYIVAIWGSDIYVPSEFGYWGQGTQVTVSS” it is “high polyreactivity”. The entry for “QVQLVESGGGLVQAGGSLRLTCAASGRIFWGNAMGWYRQAPGKERDLVAAITSCDGTNYADSVKGRFTISRDNAKNTVYLQMNSLKPEDTAVYYCAARKYYYLQYTPRYDYWGQGTQVTVSS” is “low polyreactivity”. As to “QVQLVESGGGLVQAGGSLRLSCAASGRILWSYAMGWYRQAPGKERELVAAITSGTRTNYADSVKGRFTISRDNAKNTVYLQMNSLKPEDTAVYYCAADRYWPAFYRTRGWDYYYWGQGTQVTVSS”, the “polyreactivity (PSR sort gate)” value is reported as “high polyreactivity”. On to “QVQLVESGGGIVQEGGSLSLSCAASGRIFFDYAMGWYRQAPGKERELVADIDWSGGITYYADSVKGRYTISRDNAKNTVYLQMNSLNPEDTAVYYCAVEFDELYPTTAYGEFEYWGQVTQVTVSS”, for which the “polyreactivity (PSR sort gate)” value is listed as “high polyreactivity”.

Take “QVQLVESGGGLVQAAGSLLLSCAPSGFIFYYNAMGWYRQAPGKETELVATIRGSGGSTYYADSVKGRFTISRDYAKNTVYLQMNSLKPEDTAVYYCAASVQYRRLKKFYYWGQGTQVTVSS”: the “polyreactivity (PSR sort gate)” value is listed as “high polyreactivity”. As for “QVQLVESGGGLVQAGGSLRLSCAASGIISYLYAMGWYRQAPGKERELVAVIRTSDAITYYADSVKGRFTISRDNAKNTVYLQMNSLKPEDTAVYYCNRDRGSIYGWGQGTQVTVSS”, the “polyreactivity (PSR sort gate)” value was “high polyreactivity”. The entry for “QVQLVESGGGLVQAGGSLRLSCDASGGTFYVNHMAWYRPAPWKERELVATITYSGTSTYYADSVKGRFTISRDNAKNTVYLQMNSLKPEDTAVYYCATDVLLYFEPVNLDYWGQGTQVTVSS” is “low polyreactivity”; for “QVQLVESGGGLVQAGGSLRLSCAASGFTFQRYTMGWYRQAPGKERELVAAISWSGGSTYYADSVKGRFTISRDNAKNSVYLQMNSLKPEDTAVYYCAAYRVIPYLSDYWGEGTQVTVSS” it is “high polyreactivity”. The entry for “QVQLVESGGGLVQAGGSLRLSCAASGLIFRPYTMGWYRQAPGKERELVATISGSGASTNYADSVKGRFTISRDNAKNTVYLQMNSLKPEDTAVYYCKGRSYSRMYYWGQGTQVTVSS” is “high polyreactivity”; for “QVQLVESGGGLVQAGGSLRLTCAASGRTFWYYAMGWYRQAPGKERELVAASYYSGDGTYYADSVKGRFTISRDNAKNTVYLQMTSLKPEDTALYYGAAEWSDPTLPTAWSEYEYWGQGTHVTVSS” it is “high polyreactivity”. For the sequence “QVQLVESGGGLVQAGGSLRLSCAASGRIFAVYVMGWYRQAPGKERELVAAISQSGGRTYYADSVKGRFTISRDNAKNTVYLQMNSLITEDTAVYYCNTVTSRATNFSGLGYWGQGTQVTVSS”, the “polyreactivity (PSR sort gate)” value was “high polyreactivity”. The entry for “QVQLVESGGGLVQAGGSLRLICAASGFTFPWNVMGWYRQAPGKERELVAAITYDGGGTYADSVKGRFTISRDNAKNTVYLQMNSLKPEDTAVYYCNADLIYGEEYDYWGQGTQVTVSS” is “low polyreactivity”. The entry for “QVQLVESGGGLVQAGGSLRLSCAASGRIFAPYAMGWYRQAPGKERELVAAITRGGITNYADSVKGRFTISRDNAKNTVYLQMNSLKPEDSAVYYCETVVNRRGFYQYFYWGQGTQVTVSS” is “high polyreactivity”; for “QVQLVESGGGLVQAGGSLRLSCAASGSIFGSYTMGWYRQAPGKERELVAAINASGGRTYYADSVKGRFTISRDNAKNTVYLQMNSLKPEDTAVYYCNKATYYQTYDYWGQGTQVTVSS” it is “high polyreactivity”; for “QVQLVESGGGLVQAGGSLRLSCAASGFTLYYYTMGWYRQAPGKERELVASITGGGTTNYADSVKGRFTISRDNAKNTVYLQMNSLKPEDTAVYYCAKGYGASNDPGYVRKRYGYWGQGTQVTVSS” it is “low polyreactivity”. The entry for “QVQLVESGGGLVQAGGSLRLSCAASGSTIPRYAMGWYRQAPGKERELVAAISGRGGSTYYADSVKGRFTISRDNAKNSFYFQLISLKPEDTAVYYCNAYRRYYTMYYWGQGTQVTVSS” is “high polyreactivity”; for “QVQLVESGGGLVQAGGSLRLSCAASGYTYYRYAMGWYRQAPGKERELVAAISSSGGTYYADSVKGRFTISRDNAKNTVYLQMNSLKPEDTAVYYSAAEGYYLYNAGLWGYDYWGQGTQVTVSS” it is “low polyreactivity”; for “QVQLVESGGGLVQAGGSLRLSCAASGFTFIKYAMGWYRQAPGKEREFDATISWNGGNTYYADSVKGRFTISRDKAKNTVYLQMNSLKPEDTAVYYCAARVKYRTRGGTVVSYDYWGQGTQVTVSS” it is “high polyreactivity”. With “QVQLVESGVGLVLAGGSLRLSCAASGRTFWSYAMGWYRKAPGKERELVAAITWSGTSTDYAVSVKGRFTISRDNAKNRVYLLMKSLKPEDTAVYYCAAIVYGQYRSRYYYWGQGTEVTVSS”, the “polyreactivity (PSR sort gate)” value is on record as “high polyreactivity”.
